# Measurements from publication PMC5358725 (Genes & Development, 2017).
# T1: Flag-3C-Mcm10-V5 (S. cerevisiae, UniProt P32354 1-571)
# T1 sequence: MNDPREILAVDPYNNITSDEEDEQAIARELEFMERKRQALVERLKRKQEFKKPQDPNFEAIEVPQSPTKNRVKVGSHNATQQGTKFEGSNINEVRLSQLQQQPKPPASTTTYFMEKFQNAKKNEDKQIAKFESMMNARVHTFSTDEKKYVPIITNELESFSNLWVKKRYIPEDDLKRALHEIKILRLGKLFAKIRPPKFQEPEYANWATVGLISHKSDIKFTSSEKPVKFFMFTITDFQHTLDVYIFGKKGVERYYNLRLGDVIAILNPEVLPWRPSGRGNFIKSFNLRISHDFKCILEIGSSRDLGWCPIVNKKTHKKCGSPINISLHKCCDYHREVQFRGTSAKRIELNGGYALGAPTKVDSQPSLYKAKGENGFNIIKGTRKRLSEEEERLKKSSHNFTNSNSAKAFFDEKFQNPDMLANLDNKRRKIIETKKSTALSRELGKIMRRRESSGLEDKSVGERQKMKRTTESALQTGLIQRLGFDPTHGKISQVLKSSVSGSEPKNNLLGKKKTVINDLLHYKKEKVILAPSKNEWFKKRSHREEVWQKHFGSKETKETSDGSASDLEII
# Target: T1, Flag-3C-Mcm10-V5
# Assay: co-IP
row,binding result,Binder
1,binds,Mcm2 1–483 (C-terminally 6xHis-tagged) (domain or fragment) MSDNRRRRREEDDSDSENELPPSSPQQHFRGGMNPVSSPIGSPDMINPEGDDNEVDDVPDIDEVEEQMNEVDLMDDNMYEDYAADHNRDRYDPDQVDDREQQELSLSERRRIDAQLNERDRLLRNVAYIDDEDEEQEGAAQLDEMGLPVQRRRRRRQYEDLENSDDDLLSDMDIDPLREELTLESLSNVKANSYSEWITQPNVSRTIARELKSFLLEYTDETGRSVYGARIRTLGEMNSESLEVNYRHLAESKAILALFLAKCPEEMLKIFDLVAMEATELHYPDYARIHSEIHVRISDFPTIYSLRELRESNLSSLVRVTGVVTRRTGVFPQLKYVKFNCLKCGSILGPFFQDSNEEIRISFCTNCKSKGPFRVNGEKTVYRNYQRVTLQEAPGTVPPGRLPRHREVILLADLVDVSKPGEEVEVTGIYKNNYDGNLNAKNGFPVFATIIEANSIKRREGNTANEGEEGLDVFSWTEEEERE
2,binds,MBP-Mcm2 196–299 (domain or fragment) EWITQPNVSRTIARELKSFLLEYTDETGRSVYGARIRTLGEMNSESLEVNYRHLAESKAILALFLAKCPEEMLKIFDLVAMEATELHYPDYARIHSEIHVRISD
